Measurements taken from patent US20200347144A1 (SHANGHAI HYAMAB BIOTECH, published 2020).
One block for each binder: values may come before it.

Experiments:
[1] = biological target: T1, mouse 4-1BB protein (extracellular domain) (mouse, UniProt P20334 24-187); experiment: ELISA, coated mouse 4-1BB; Ab 0.016 ug/ml
T1 construct: extracellular domain; also called mouse 4-1BB-his; mouse 4-1BB-hFc protein
T1 sequence (looked up): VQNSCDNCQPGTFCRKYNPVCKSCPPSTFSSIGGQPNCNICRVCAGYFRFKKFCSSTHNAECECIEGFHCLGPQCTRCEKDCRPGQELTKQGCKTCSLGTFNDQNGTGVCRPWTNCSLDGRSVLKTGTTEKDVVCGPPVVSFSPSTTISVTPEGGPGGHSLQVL
Method: (§1) The purified immunogen A (4-1BB-hFc), monkey 4-1BB-his, and mouse 4-1BB-his obtained in Example 1 [for the preparation method, see step 1 of Example 1, preparation of immunogen A], of which the extracellular domain of monkey-derived 4-1BB protein (purchased from ACRO biosystems), the extracellular domain of mouse 4-1BB protein (purchased from sino biological) or other immune detection point proteins respectively were diluted with PBS to a final concentration of 1.0 μg/mL, then added with […] per well to 96-well ELISA plate. It was sealed with plastic film and incubated at 4° C. overnight. The next day, the plate was washed twice with the plate-washing solution [PBS containing 0.01% (v/v) Tween20] and blocking solution [PBS containing 0.01% (v/v) Tween 20 and 1% (v/v) BSA] was added and blocked at room temperature for 2 hours. The blocking solution was discarded and 100 μl of the purified 4-1BB antibody obtained in Example 2 was added per well. After incubated at 37° C. for 2 hours, the plate was washed 3 times with a plate-washing solution [PBS containing 0.01% (v/v) Tween20]. A secondary antibody (purchased from Sigma) labeled with HRP (horseradish peroxidase) was added, and after incubated at 37° C. for 2 hours, the plate was washed 3 times with a plate-washing solution [PBS containing 0.01% (v/v) Tween20]. 100 μl of TMB substrate was added per well. After incubated for 30 minutes at room temperature, 100 μl of stop buffer (1.0N HCl) was added per well. The A450 nm values were read using an ELISA plate reader (SpectraMax 384plus, Molecular Device).

[2] = biological target: T2, human 4-1BB, full length, on transfected cells (human, UniProt Q07011 24-255); experiment: cell-based or functional assay
[3] = biological target: T3, his-tagged human 4-1BB protein antigen (human, UniProt Q07011 24-186); experiment: SPR (Biacore T200), antibody captured on anti-human Fc, his-tagged human 4-1BB as analyte
T3 construct: not shown: his tag
Description: The Biacore T200 instrument (purchased) was used to determine the affinity constant. The specific operation and method were based on the instrument manual and the detailed method provided by the manufacturer. Sensors labeled with anti-human Fc were combined with anti-4-1BB fully human antibodies to detect the binding and dissociation of five different gradients of his-tagged human 4-1BB protein antigen. Then software was used to fit the dissociation constant and the binding constant. The affinity constant is the ratio of the dissociation constant and the binding constant.

[4] = biological target: T2, human 4-1BB, full length, on …; experiment: FACS blocking assay on CHOK1-h4-1BB cells: antibody titrated against his-muCD8a-4-1BBL, bound ligand detected with Alexa 488 anti-mouse CD8a; inhibition rate (%) relative to human IgG
Method: It was washed three times with FACS buffer by centrifugation, and 100 μl of fixative [4% (v/v) paraformaldehyde] per well was added to suspend cells, and it was washed twice with FACS buffer by centrifugation after 10 minutes. The cells were suspended with 100 microliters of FACS buffer, and the results were detected and analyzed with FACS (FACS Calibur, purchased from BD). […] The IgG control is human IgG, and the data in the table is the inhibition rate of the ligand binding by the fully human 4-1BB antibody relative to the control group (human IgG).

monkey 4-1BB-his protein = biological target: T4, monkey 4-1BB-his protein (monkey); experiment: ELISA: monkey 4-1BB-his coated at 1.0 µg/mL, antibody titrated, HRP secondary antibody, OD450
T4 construct: extracellular domain; Bought protein; also called extracellular domain of monkey-derived 4-1BB protein
Method: as §1

T2 sequence (Q07011 24-255): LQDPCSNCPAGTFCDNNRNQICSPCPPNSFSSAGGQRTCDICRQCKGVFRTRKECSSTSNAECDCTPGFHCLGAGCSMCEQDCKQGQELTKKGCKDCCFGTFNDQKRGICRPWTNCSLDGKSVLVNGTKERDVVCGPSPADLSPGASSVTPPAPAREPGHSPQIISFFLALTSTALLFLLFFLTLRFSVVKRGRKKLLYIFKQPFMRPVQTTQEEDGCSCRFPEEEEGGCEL

B3: 170D7F2 (antibody, V domains shown)
VH: QVQLVQSGAEVKKPGASVKVSCKASGYTFTSYDINWVRQATGQGLEWMGWMNPNSGNTGYAQKFQGRVTMTRNTSISTAYMELSSLRSEDTAVYYCARETGPFDYWGQGTLVTVSS
VL: DIQMTQSPSSLSASVGDRVTITCRASQRINNYLNWYQQKPGKAPKLLIYGASSLQSGVPSRFSGSGSGTDFTLTISSLQPEDFATYYCQQSYSTPFTFGPGTKVDIK
OD450 nm [1]: 0.18 OD450 nm

B5: 113F6C6 (antibody, V domains shown)
VH: QVQLVESGGGVVQPGRSLRLSCAASGLTFSSYGMHWVRQAPGKGLEWVAVIWYDGSNKYYADSVKGRFTISRDNSKNTLYLQMNSLRAEDTAVYYCAREEVLWFGELSYNYYYGMDVWGQGTTVTVSS
VL: DIQMTQSPSSLSASVGDRVTITCRASQGISNYLAWYQQKPGKVPKLLIYAASTLQSGVPSRFSGSGSGTDFTLTISSLQPEDVATYYCQKYNSVPLTFGGGTKVEIK
notes: also called 4-1BB fully human antibody 113F6C6; 113F6F6
NFκB luciferase reporter, 4-1BB+ HEK293; EC50; cross-linked [2]: 0.41 nM | NFκB luciferase reporter, 4-1BB+ HEK293; EC50; non-cross-linked [2]: 3.46 nM | NFκB luciferase reporter, 4-1BB+ HEK293; fluorescence multiple vs human IgG; cross-linked; Ab 0.00013 ug/ml [2]: 0.7 fold | NFκB luciferase reporter, 4-1BB+ HEK293; fluorescence multiple vs human IgG; cross-linked; Ab 0.00064 ug/ml [2]: 1.3 fold | NFκB luciferase reporter, 4-1BB+ HEK293; fluorescence multiple vs human IgG; cross-linked; Ab 0.0032 ug/ml [2]: 2.15 fold | NFκB luciferase reporter, 4-1BB+ HEK293; fluorescence multiple vs human IgG; cross-linked; Ab 0.016 ug/ml [2]: 6.55 fold | NFκB luciferase reporter, 4-1BB+ HEK293; fluorescence multiple vs human IgG; cross-linked; Ab 0.08 ug/ml [2]: 14.6 fold | NFκB luciferase reporter, 4-1BB+ HEK293; fluorescence multiple vs human IgG; cross-linked; Ab 0.4 ug/ml [2]: 14.8 fold | NFκB luciferase reporter, 4-1BB+ HEK293; fluorescence multiple vs human IgG; cross-linked; Ab 2 ug/ml [2]: 17.1 fold | NFκB luciferase reporter, 4-1BB+ HEK293; fluorescence multiple vs human IgG; cross-linked; Ab 10 ug/ml [2]: 13.6 fold | NFκB luciferase reporter, 4-1BB+ HEK293; fluorescence multiple vs human IgG; non-cross-linked; Ab 0.00013 ug/ml [2]: 1.25 fold | NFκB luciferase reporter, 4-1BB+ HEK293; fluorescence multiple vs human IgG; non-cross-linked; Ab 0.00064 ug/ml [2]: 0.95 fold | NFκB luciferase reporter, 4-1BB+ HEK293; fluorescence multiple vs human IgG; non-cross-linked; Ab 0.0032 ug/ml [2]: 1.3 fold | NFκB luciferase reporter, 4-1BB+ HEK293; fluorescence multiple vs human IgG; non-cross-linked; Ab 0.016 ug/ml [2]: 4.35 fold | NFκB luciferase reporter, 4-1BB+ HEK293; fluorescence multiple vs human IgG; non-cross-linked; Ab 0.08 ug/ml [2]: 12.7 fold | NFκB luciferase reporter, 4-1BB+ HEK293; fluorescence multiple vs human IgG; non-cross-linked; Ab 0.4 ug/ml [2]: 12.1 fold | NFκB luciferase reporter, 4-1BB+ HEK293; fluorescence multiple vs human IgG; non-cross-linked; Ab 2 ug/ml [2]: 23 fold | NFκB luciferase reporter, 4-1BB+ HEK293; fluorescence multiple vs human IgG; non-cross-linked; Ab 10 ug/ml [2]: 22.1 fold | OD450 nm [1]: 0.05 OD450 nm | Kd [3]: 17.6 nM | koff [3]: 0.03 s⁻¹ | kon [3]: 1.68e+06 M⁻¹ s⁻¹ | EC50 (read off the curve) (monkey 4-1BB-his protein): ~0.05 µg/mL

B6: 119B6G5 (antibody, V domains shown)
VH: EVQLLESGGGLVQPGGSLRLSCAASGFTFSNYAMSWVRQGPGKGLEWVSTIIGSGDSTYYTDSVKGRFTISRDNSKNTLFLQMNSLRAEDTAVYYCARDKSGWYYFDYWGQGTLVTVSS
VL: DIQMTQSPSTLSASVGDRVTITCRASQSISNWLAWYQQKPGKAPKLLIYKASSLESGVPSRFSGSGSGTEFTLTISSLQPDDFATYYCQQYNDYFPITFGQGTRLEIK
EC50 (read off the curve) (monkey 4-1BB-his protein): ~0.03 µg/mL

Other lines, results leading:

OD450 nm [1]: 0.05 OD450 nm
B1: 172E3E3 (antibody, V domains shown)
VH: QVQLQESGPGLVKPSGTLSLTCAVSGGSISSSNWWSWVRQPPGKGLEWIGEIYHSGSTNYNPSLKSRVTISVDKSKNQLSLNLSSVTAADTAVYYCARQGGVAGTLYWYFDLWGRGTLVTVSS
VL: DIVMTQSPLSLPVTPGEPASISCRSSQGLLHSNGYNYLDWYLQKPGQSPQLLIYLGSNRASGVPDRFIGSGSGTDFTLKIRRVEAEDVGVYYCMQVLQTPWTFGQGTKVEIK

NFκB luciferase reporter, 4-1BB+ HEK293; EC50; cross-linked [2]: 0.94 nM | NFκB luciferase reporter, 4-1BB+ HEK293; fluorescence multiple vs human IgG; cross-linked; Ab 0.00013 ug/ml [2]: 0.9 fold | NFκB luciferase reporter, 4-1BB+ HEK293; fluorescence multiple vs human IgG; cross-linked; Ab 0.00064 ug/ml [2]: 1.15 fold | NFκB luciferase reporter, 4-1BB+ HEK293; fluorescence multiple vs human IgG; cross-linked; Ab 0.0032 ug/ml [2]: 1.1 fold | NFκB luciferase reporter, 4-1BB+ HEK293; fluorescence multiple vs human IgG; cross-linked; Ab 0.016 ug/ml [2]: 2.35 fold | NFκB luciferase reporter, 4-1BB+ HEK293; fluorescence multiple vs human IgG; cross-linked; Ab 0.08 ug/ml [2]: 3.3 fold | NFκB luciferase reporter, 4-1BB+ HEK293; fluorescence multiple vs human IgG; cross-linked; Ab 0.4 ug/ml [2]: 3.6 fold | NFκB luciferase reporter, 4-1BB+ HEK293; fluorescence multiple vs human IgG; cross-linked; Ab 2 ug/ml [2]: 5.55 fold | NFκB luciferase reporter, 4-1BB+ HEK293; fluorescence multiple vs human IgG; cross-linked; Ab 10 ug/ml [2]: 4.3 fold | NFκB luciferase reporter, 4-1BB+ HEK293; fluorescence multiple vs human IgG; non-cross-linked; Ab 0.00013 ug/ml [2]: 0.95 fold | NFκB luciferase reporter, 4-1BB+ HEK293; fluorescence multiple vs human IgG; non-cross-linked; Ab 0.00064 ug/ml [2]: 0.9 fold | NFκB luciferase reporter, 4-1BB+ HEK293; fluorescence multiple vs human IgG; non-cross-linked; Ab 0.0032 ug/ml [2]: 1.4 fold | NFκB luciferase reporter, 4-1BB+ HEK293; fluorescence multiple vs human IgG; non-cross-linked; Ab 0.016 ug/ml [2]: 1.4 fold | NFκB luciferase reporter, 4-1BB+ HEK293; fluorescence multiple vs human IgG; non-cross-linked; Ab 0.08 ug/ml [2]: 2.7 fold | NFκB luciferase reporter, 4-1BB+ HEK293; fluorescence multiple vs human IgG; non-cross-linked; Ab 0.4 ug/ml [2]: 3.5 fold | NFκB luciferase reporter, 4-1BB+ HEK293; fluorescence multiple vs human IgG; non-cross-linked; Ab 2 ug/ml [2]: 5 fold | NFκB luciferase reporter, 4-1BB+ HEK293; fluorescence multiple vs human IgG; non-cross-linked; Ab 10 ug/ml [2]: 7.5 fold | OD450 nm [1]: 0.16 OD450 nm | Kd [3]: 21.5 nM | koff [3]: 0.0124 s⁻¹ | kon [3]: 574000 M⁻¹ s⁻¹ | IC50 (read off the curve) [4]: ~2 µg/mL | EC50 (read off the curve) (monkey 4-1BB-his protein): ~0.03 µg/mL
B2: 57B3D10 (antibody, V domains shown)
VH: QVQLQESGPGLVKPSETLSLTCTVSGGSISSYYWSWIRQPPGKGLEWIGYIYYSGSTNYNPSLKSRVTISVDTSKSQFSLKLTSVTAADTAVYYCAKDSDYYGSGSYSYWYFDLWGRGTLVTVSS
VL: EIVMTQSPATLSVSPGERATLSCRASQSVSSNLAWYQQKPGQAPRLLIYGASTRAPGIPARFSGSGSGTEFTLTISSLQSEDFAVYYCQQYNNWPLTFGGGTKVEIK
notes: also called 4-1BB fully human antibody 57B3D10

OD450 nm [1]: 0.09 OD450 nm
B4: 118F3A2 (antibody, V domains shown)
VH: QVQLQQWGAGLLKPSETLSLTCGVYGGSFSTNYWSWIRQSPGKGLEWIGEINHSGNTEYNPSLKSRLTISIDTSKNQFSLKLTSVTAADTAVYYCARMGYHSPSFDFWGQGVLVTVSS
VL: KIVMTQSPATLSVSPGERATLPCRVSQGIGSNLAWYQQKPGQAPRLLIYGASTRATGVPARFSGSGSGSEFTLTISSLQSEDLALYYCQQYNNWPLTFGGGTKVEIK
